Results as given in publication PMC4125116.

Columns and labels:
[1] = molecular target: BldM fused to the T18 or the T25 fragment of adenylate cyclase (BACTH) (Streptomyces venezuelae); assay: two-hybrid; bacterial two-hybrid (BACTH), T18 (pUT18) and T25 (pKT25) fusions in E. coli BTH101; transformants grown at 30°C for two days; β-galactosidase assays of four independent clones
[2] = molecular target: WhiI fused to the T18 or the T25 fragment of adenylate cyclase (BACTH) (Streptomyces venezuelae); assay: as above

β-galactosidase activity (Miller units) [1] [Miller units]	β-galactosidase activity (Miller units) [2] [Miller units]	Substance
3000	–	WhiI fused to the T18 or the T25 fragment of adenylate cyclase (BACTH) (natural protein)
750	3000	BldM fused to the T18 or the T25 fragment of adenylate cyclase (BACTH) (natural protein)
